According to patent US20260022343A1 (AFFYXELL THERAPEUTICS, published 2026):
Values joined by “and” are separate entries in the source; they are usually repeats but may differ in a detail not shown here. Equal entries are not always repeated.

T1: human TNFR2 (human, UniProt P20333 23-257, limits assumed)
T1 sequence (looked up): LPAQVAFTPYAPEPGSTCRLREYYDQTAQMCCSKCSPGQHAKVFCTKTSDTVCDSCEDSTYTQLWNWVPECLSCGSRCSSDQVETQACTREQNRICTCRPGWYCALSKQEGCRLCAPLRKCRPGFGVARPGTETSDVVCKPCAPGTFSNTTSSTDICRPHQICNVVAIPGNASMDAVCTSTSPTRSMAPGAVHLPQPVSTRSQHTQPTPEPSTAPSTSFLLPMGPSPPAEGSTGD

T2: human Mega CD40L recombinant protein (Enzo Lifesciences) (human, UniProt P29965 116-261)
T2 sequence (looked up): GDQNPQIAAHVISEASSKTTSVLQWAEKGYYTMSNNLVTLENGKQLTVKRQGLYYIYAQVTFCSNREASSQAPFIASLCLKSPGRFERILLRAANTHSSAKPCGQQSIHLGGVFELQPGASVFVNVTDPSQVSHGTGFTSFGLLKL

T3: recombinant human CD40L (R&D Systems, 6420-CL-025/CF) (human, UniProt P29965 108-261, limits assumed)
T3 construct: Bought protein coated on the ELISA plate
T3 sequence (looked up): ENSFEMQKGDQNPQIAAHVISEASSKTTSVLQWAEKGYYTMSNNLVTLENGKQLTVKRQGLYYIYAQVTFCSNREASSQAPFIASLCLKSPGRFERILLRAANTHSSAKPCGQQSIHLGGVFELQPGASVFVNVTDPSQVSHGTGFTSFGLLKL


Key:
[1] = target: T1, human TNFR2; experiment: selection of TNFR2-binding stefin A variants; method not described
[2] = target: T2, human Mega CD40L recombinant protein …; experiment: cell-based or functional assay
[3] = target: T3, recombinant human CD40L (R&D Systems, …); experiment: binding ELISA (bELISA): plate coated with recombinant human CD40L, 1/3 serial dilutions of concentrated culture fluid, TMB read-out; first-named of the two gene-introduced cell lines (promoter not stated)
Experimental: (§1) Each cell line was inoculated into a T175 flask at a cell density of 4.0×10³ cells/cm² using a culture medium. After culture at 37° C. and 5% CO₂ for 18 to 24 hours, the culture medium was thoroughly replaced with a fresh culture medium every 2 days, followed by culture. After culture for 3 days, the cells were harvested, and 7.0×10⁶ cells were inoculated into a T175 flask, followed by culture at 37° C. and 5% CO₂ for 18 to 24 hours. The culture medium was thoroughly removed, and the remaining medium was completely removed through washing with 10 mL of MEM alpha. 30 mL of an MEM alpha medium was added to a T175 flask, followed by culture for 48 hours. After 48 hours, all of the cell culture fluid was harvested and then centrifuged to remove residual cells and impurities. The cell culture fluid was transferred to a Vivaspin 20 and centrifuged, the culture fluid was concentrated, and the stefin A protein variant was quantified through sandwich ELISA (LSBio, LS-F4620). […] The unbound stefin A protein variant was removed through washing, after which the extent of binding between the stefin A protein variant and CD40L was detected based on a difference in absorbance resulting from reaction with a TMB substrate.

[4] = target: T3, recombinant human CD40L (R&D Systems, …); experiment: binding ELISA (bELISA): plate coated with recombinant human CD40L, 1/3 serial dilutions of concentrated culture fluid, TMB read-out; second-named of the two gene-introduced cell lines (promoter not stated)
Experimental: as §1

binding result [1] | Binder | further results
binds | TNFR2-binding stefin A variant CLONE 044 (designed binder, also called clone 44) MIPGGLSEAKPATPEIQEIVDKVKPQLEEKTGETYGKLEAVQYKTQVVLFPEAVYWVGTNYYIKVRAGDNKYMHLKVFKSLIWNDNAAQHEDLVLTGYQVDKNKDDELTGFAAAEQKLISEEDLAAHHHHHH | 
binds | TNFR2-binding stefin A variant CLONE 001 (designed binder, also called clone 1) MIPGGLSEAKPATPEIQEIVDKVKPQLEEKTGETYGKLEAVQYKTQVVGQDQWGNYAGTNYYIKVRAGDNKYMHLKVFKSLPDIPHNHWHEDLVLTGYQVDKNKDDELTGFAAAEQKLISEEDLAAHHHHHH | 
binds | TNFR2-binding stefin A variant CLONE 007 (designed binder, also called clone 7) MIPGGLSEAKPATPEIQEIVDKVKPQLEEKTGETYGKLEAVQYKTQVVGLDIWGNNAGTNYYIKVRAGDNKYMHLKVFKSLADTARTEEAEDLVLTGYQVDKNKDDELTGFAAAEQKLISEEDLAAHHHHHH | 
binds | TNFR2-binding stefin A variant CLONE 012 (designed binder, also called clone 12) MIPGGLSEAKPATPEIQEIVDKVKPQLEEKTGETYGKLEAVQYKTQVVYWGVQGALDGTNYYIKVRAGDNKYMHLKVFKSLNWNHEFDLVEDLVLTGYQVDKNKDDELTGFAAAEQKLISEEDLAAHHHHHH | 
binds | TNFR2-binding stefin A variant CLONE 026 (designed binder, also called clone 26) MIPRGLSEAKPATPEIQEIVDKVKPQLEEKTGETYGKLEAVQYKTQVLALEIPSAIIYSTNYYIKVRAGDNKYMHLKVFNGPYFWGDQEHWADRVLTGYQVDKNKDDELTGFAAAEQKLISEEDLAAHHHHHH | 
 | anti-CD40L stefin A protein variant XT75 (SEQ ID NO: 105), secreted by gene-introduced MSC (eMSC) (designed binder, By their DNA these vectors appear to encode a further C-terminal Myc/His tag and a T2A remnant; also called AFX01-230 XT75(C); eMSC (XT75, w/EF1A)) IPGGLSEAKPATPEIQEIVDKVKPQLEEKTGETYGKLEAVQYKTQVVHYYVHYNDQGTNYYIKVRAGDNKYMHLKVFKSLWGENLFAKWEDLVLTGYQVDKNKDDELTGFAEAAAKEAAAKEAAAKEAAAKEAAAKEAAAKMIPGGLSEAKPATPEIQEIVDKVKPQLEEKTGETYGKLEAVQYKTQVVHYYVHYNDQGTNYYIKVRAGDNKYMHLKVFKSLWGENLFAKWEDLVLTGYQVDKNKDDELTGFAEAAAKEAAAKEAAAKEAAAKEAAAKEAAAKMIPGGLSEAKPATPEIQEIVDKVKPQLEEKTGETYGKLEAVQYKTQVVHYYVHYNDQGTNYYIKVRAGDNKYMHLKVFKSLWGENLFAKWEDLVLTGYQVDKNKDDELTGFAEAAAKEAAAKEAAAKEAAAKEAAAKEAAAKMIPRGLSEAKPATPEIQEIVDKVKPQLEEKTGETYGKLEAVQYKTQVLANFFQRRWPGSTNYYIKVRAGDNKYMHLKVFNGPWKFRNTDRGADRVLTGYQVDKNKDDELTGF | IC50 for hMega CD40L, HEK-Blue CD40L reporter cell assay (absorbance of HEK-Blue solution) [2]: 0.303 nM and 0.4 nM; EC50 [3]: 3.9 pM; EC50 [4]: 5.3 pM
binds | TNFR2-binding stefin A variant CLONE 100 (designed binder) MIPRGLSEAKPATPEIQEIVDKVKPQLEEKTGETYGKLEAVQYKTQVLAQSWDKHYQLRESTNYYIKVRAGDNKYMHLKVFNGPEVPHHAHGVADRVLTGYQVDKNKDDELTGFAAAEQKLISEEDLAAHHHHHH | 
binds | TNFR2-binding stefin A variant CLONE 009 (designed binder, also called clone 9) MIPGGLSEAKPATPEIQEIVDKVKPQLEEKTGETYGKLEAVQYKTQVVRLFHIWRWWGTNYYIKVRAGDNKYMHLKVFKSLIHIYTDSIQEDLVLTGYQVDKNKDDELTGFAAAEQKLISEEDLAAHHHHHH | 
